Target: Mouse FGFR4/β-klotho complex co-expressed in L6 cells (mouse) (UniProt Q03142)
Test: cell-based or functional assay

Chain of Mouse FGFR4/β-klotho complex co-expressed in L6 cells (mouse) (Q03142 17-799, chain 1 of 2): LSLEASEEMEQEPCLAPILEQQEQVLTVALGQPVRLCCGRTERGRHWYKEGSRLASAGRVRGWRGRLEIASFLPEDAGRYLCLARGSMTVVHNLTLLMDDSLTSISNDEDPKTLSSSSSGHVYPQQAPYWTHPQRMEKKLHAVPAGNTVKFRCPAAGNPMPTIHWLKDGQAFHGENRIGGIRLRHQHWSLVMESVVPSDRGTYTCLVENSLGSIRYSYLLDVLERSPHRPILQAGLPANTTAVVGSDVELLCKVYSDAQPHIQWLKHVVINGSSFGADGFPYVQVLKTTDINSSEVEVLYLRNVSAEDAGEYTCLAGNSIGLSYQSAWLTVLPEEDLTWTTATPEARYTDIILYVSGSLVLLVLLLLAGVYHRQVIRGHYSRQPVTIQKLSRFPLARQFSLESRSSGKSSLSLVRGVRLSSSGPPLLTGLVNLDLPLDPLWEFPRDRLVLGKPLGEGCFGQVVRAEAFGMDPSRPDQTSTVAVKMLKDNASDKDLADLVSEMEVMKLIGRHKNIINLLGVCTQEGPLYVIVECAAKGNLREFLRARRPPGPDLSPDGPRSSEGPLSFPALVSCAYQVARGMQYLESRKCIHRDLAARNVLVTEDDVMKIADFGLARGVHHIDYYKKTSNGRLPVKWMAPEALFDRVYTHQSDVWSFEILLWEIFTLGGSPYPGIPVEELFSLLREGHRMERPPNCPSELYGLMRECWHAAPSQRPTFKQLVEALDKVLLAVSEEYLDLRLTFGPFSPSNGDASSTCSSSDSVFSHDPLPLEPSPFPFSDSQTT
Chain of Mouse FGFR4/β-klotho complex co-expressed in L6 cells (mouse) (Q99N32 whole entry, chain 2 of 2, further chain): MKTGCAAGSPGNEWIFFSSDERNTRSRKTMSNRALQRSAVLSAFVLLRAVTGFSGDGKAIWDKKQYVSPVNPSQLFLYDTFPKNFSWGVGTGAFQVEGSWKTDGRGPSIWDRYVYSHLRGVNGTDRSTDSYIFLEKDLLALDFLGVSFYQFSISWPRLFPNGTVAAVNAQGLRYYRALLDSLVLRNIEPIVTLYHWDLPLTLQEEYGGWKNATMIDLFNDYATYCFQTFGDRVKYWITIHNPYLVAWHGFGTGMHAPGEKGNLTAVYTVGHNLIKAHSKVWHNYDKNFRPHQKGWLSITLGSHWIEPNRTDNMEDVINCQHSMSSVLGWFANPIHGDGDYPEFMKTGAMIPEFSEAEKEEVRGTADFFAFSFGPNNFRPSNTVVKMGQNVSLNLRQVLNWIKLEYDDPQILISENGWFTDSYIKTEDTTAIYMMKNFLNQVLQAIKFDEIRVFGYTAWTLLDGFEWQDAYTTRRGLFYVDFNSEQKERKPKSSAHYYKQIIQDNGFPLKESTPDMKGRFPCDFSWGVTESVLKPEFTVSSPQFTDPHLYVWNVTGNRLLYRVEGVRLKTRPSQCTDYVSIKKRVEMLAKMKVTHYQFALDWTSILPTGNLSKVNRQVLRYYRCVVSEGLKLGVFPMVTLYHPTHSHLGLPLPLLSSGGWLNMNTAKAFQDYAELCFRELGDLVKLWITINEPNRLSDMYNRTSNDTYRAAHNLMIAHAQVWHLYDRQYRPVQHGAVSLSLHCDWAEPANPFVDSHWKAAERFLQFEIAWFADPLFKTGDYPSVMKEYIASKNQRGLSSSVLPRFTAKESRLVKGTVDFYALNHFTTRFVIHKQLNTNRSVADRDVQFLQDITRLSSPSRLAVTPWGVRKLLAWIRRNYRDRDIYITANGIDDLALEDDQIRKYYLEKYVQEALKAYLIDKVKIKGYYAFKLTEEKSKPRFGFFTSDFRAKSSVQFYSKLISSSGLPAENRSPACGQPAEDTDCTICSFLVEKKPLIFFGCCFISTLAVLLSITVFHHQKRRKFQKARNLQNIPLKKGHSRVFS

EC50 (pM), ELK1 luciferase reporter in L6 cells: 52.5 pM | Emax (fold potentiation), ELK1 luciferase reporter in L6 cells (fold potentiation): 1.82
Substance: FGF19 (wild type human fibroblast growth factor 19) (from UniProt O95750 23-216) (ligand)

— US20230226151A1
